The assay deals with T1, full-length CD22 (UniProt P20273 20-847, limits assumed).
T1 construct: Re-expressed in OCI-Ly10 cells whose endogenous CD22 was deleted by CRISPR; also called CD22 full length (FL); CD22-full length
T1 sequence (looked up): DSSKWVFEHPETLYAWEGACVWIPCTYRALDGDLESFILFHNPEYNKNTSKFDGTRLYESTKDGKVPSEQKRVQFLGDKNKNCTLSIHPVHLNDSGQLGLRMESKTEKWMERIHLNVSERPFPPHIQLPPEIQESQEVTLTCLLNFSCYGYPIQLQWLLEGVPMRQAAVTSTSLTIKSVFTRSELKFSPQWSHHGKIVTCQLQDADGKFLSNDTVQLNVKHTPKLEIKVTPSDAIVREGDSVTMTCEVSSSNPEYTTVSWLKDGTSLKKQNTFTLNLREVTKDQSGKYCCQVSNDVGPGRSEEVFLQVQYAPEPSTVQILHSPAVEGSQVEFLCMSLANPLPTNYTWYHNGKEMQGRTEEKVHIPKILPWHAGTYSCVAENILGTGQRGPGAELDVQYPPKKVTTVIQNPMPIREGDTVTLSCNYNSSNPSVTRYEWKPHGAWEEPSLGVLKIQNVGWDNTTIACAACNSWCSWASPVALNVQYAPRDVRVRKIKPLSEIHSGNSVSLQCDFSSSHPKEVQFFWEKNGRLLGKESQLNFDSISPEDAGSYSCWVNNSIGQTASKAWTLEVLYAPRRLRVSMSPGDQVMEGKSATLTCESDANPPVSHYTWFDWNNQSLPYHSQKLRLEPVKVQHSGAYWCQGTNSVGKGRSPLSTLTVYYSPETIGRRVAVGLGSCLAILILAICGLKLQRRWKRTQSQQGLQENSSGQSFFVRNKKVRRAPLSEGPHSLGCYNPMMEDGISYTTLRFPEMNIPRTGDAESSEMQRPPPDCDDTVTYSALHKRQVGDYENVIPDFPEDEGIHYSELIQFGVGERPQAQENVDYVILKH
The assay is described as follows: OCI-Ly10 cells with endogenous CD22 deleted by CRISPR, reconstituted with full-length CD22; Western blot (FIG. 5B). The source says: One top event was the increased skipping of exon 5-6 (Δex5-6) in CD22 in B-ALL. The inventors validated the RNA expression of this event in 18 out of 18 primary B-ALL samples with RT-PCR. And using Nanopore-based long read RNA sequencing, they confirmed the Δex5-6 event exists within a larger translatable transcript in B-ALL cell lines and B-ALL patient-derived xenografts (PDX). BALB/C mice were then immunized against a peptide containing the junction site of exon 4 and 7 to generate hybridomas and obtain a monoclonal antibody (mAb) against CD22 Δex5-6. To validate the specificity of the identified mAb, the inventors used CRISPR to delete endogenous CD22 in OCI-Ly10 cells and reconstituted the cells with either CD22 Δex5-6 or full length CD22. […] The inventors also validated that this mAb specifically binds to endogenously expressed CD22 Δex5-6 in multiple B-ALL cell lines and B-ALL patient-derived xenografts (PDX) by immunoprecipitation and Western blot analysis. In next steps, the inventors plan to develop antibody-drug conjugates and chimeric antigen receptors from our mAb for further therapeutic testing.
(Immunoblotting shows a protein as a band on a membrane.)

B1: Clone 11F11 monoclonal antibody against CD22 Δex5-6 (antibody, V domains shown)
VH: RVQLQQPGADLVRPGASVKLSCKASGYTFTSYWMSWVKQRPGQGLEWIGMIDPSDSEAHYNQMFRDKATLTVDNSSSTAYMVLSSLTSEDSAVYYCSNDFDYWGQGTTLTVSS
VL: not shown
notes: Mouse hybridoma antibody, from BALB/C mice immunized with a peptide containing the exon 4/exon 7 junction; No isotype is stated for the clone; also called the mAb; CD22 Δex5-6 antibody
Regarding B1, the binding result was “no binding”.

Source of the values: patent US20220289841A1 (CHILDREN S HOSPITAL OF PHILADELPHIA, published 2022).
